Measured values from patent publication US7919461B2, “Erythropoietin receptor peptide formulations and uses” (Affymax, Inc., priority 2005, dated 2011).
“Also recorded” adds a separate entry of the source. Bridge positions count the residues as written; N and C are the ends. Square brackets hold non-standard residues; d marks the D form. Ends that are not written are not given here. 1Nal = N[C@@H](Cc1cccc2ccccc12)C(=O)O; Sar = CNCC(=O)O

Columns and labels:
[1] = Pharmacokinetic studies in rats; format: in vivo; settings: species not stated
[2] = Phase 1 single IV dose study in normal healthy volunteers, safety; format: in vivo, human
Source text: (§1) Peptide I has been tested in […] in one Phase 1 study. This first-in-human study with Peptide I was a randomized, double-blind, placebo-controlled, single-dose, IV, escalating dose, safety and tolerability trial. The primary objectives of the study were to evaluate the safety and pharmacokinetics of Peptide I, and to establish a pharmacologically active dose (PAD). Cohorts of seven male volunteers were scheduled to receive single doses of Peptide I or placebo in a 5:2 ratio. Cohorts were to be added at increasing dose levels until a PAD, as determined by an increase in hemoglobin from baseline values, was observed, at which point the dose level identified as the PAD would be repeated in another cohort of volunteers.
(§2) The study was initiated in four cohorts were enrolled in a consecutive manner at Peptide I doses of 0.025, 0.05, 0.1 mg/kg, and […], respectively (single dose per cohort). […] As such, the study was terminated.

[3] = Phase 1 single IV dose study in normal healthy volunteers, pharmacodynamics; format: in vivo, human
Source text: as §1, §2

[4] = Pharmacology studies in animals, stimulation of erythropoiesis; format: in vivo, mice; rats, dogs, rabbits and monkeys
[5] = Phase II multi-dose once-monthly SC study in pre-dialysis chronic kidney disease patients; format: in vivo, human
Procedure: A multi-center, open-label, sequential dose-finding phase II clinical trial involving patients with chronic kidney disease was performed in order to evaluate the safety and pharmacodynamics of multiple doses of once-monthly (Q4W) subcutaneous (SC) delivery of Peptide I (SEQ ID NO:2). A total of 60 erythropoiesis-stimulating-agent-naïve, pre-dialysis, chronic kidney disease (CKD) patients [hemoglobin (Hgb) levels 9.0-10.9 g/dL, ferritin >100 ug/L and transferrin saturation (TSAT)>20%] were enrolled into three dose cohorts. Patients received up to six once-monthly SC drug doses. The starting doses were 0.025 mg/kg (n=15), 0.050 mg/kg (n=30) and 0.075 mg/kg (n=15). Dose titration was allowed after the first dose, based on patient Hgb levels.
Dose titrations were allowed after the patient's initial dose. Dose adjustments were ±25% of the previous dose, depending on the patient's measured hemoglobin (Hgb) level.

[6] = Phase 1 single IV dose study in normal healthy volunteers, pharmacokinetics; format: in vivo, human; settings: dose normalized, ANOVA
Source text: as §1, §2
In the 0.025 mg/kg dose group, Peptide I concentration peaked between 5 and 15 minutes, while tmax approached 1 hour for the 0.1 mg/kg dose.

## PEGylated homodimer of peptide monomers (AcG)GLYACHMGPIT(1-nal)VCQPLR(MeG)K (SEQ ID NO: 2); fully synthetic EPO receptor agonist (Ac-GGLYACHMGPIT[1Nal]VCQPLR[Sar]K; disulfide 6-15 (inferred); not fully specified (residue 1); printed as (AcG)GLYACHMGPIT(1-nal)VCQPLR(MeG)K; also: homodimer via branched linker on K21 ε-amino group, PEG attached to linker) [Peptide I]
[1]
  Biodistribution: primarily to the plasma fraction
[2]; Peptide I recipients
  abdominal pain, frequency: 10.0%
  headache, frequency: 20.0%
  nasopharyngitis, frequency: 10.0%
  nausea, frequency: 10.0%
  subjects who experienced adverse events: 11 of 20
[2]; human, in vivo
  Serious Adverse Events: no Serious Adverse Events
  antibodies specific to Peptide I: None of the subjects in this trial developed antibodies
  vital signs, electrocardiograms (ECGs) or laboratory values: no clinically significant changes
[2]; single IV doses of 0.025, 0.05, or 0.1 mg/kg
  safety and tolerability: safe and well tolerated
[3]; 0.1 mg/kg
  increase in hemoglobin associated with the PAD: ≥ 1.0 g/dL
[3]; 0.1 mg/kg, 10 recipients
  average maximum increase in hemoglobin from baseline: 1.36 ± 0.39 g/dL
[3]; 0.1 mg/kg, Day 42
  average hemoglobin levels at Day 42: returned to baseline
[3]; 0.1 mg/kg, Day 42 as throughout the study
  difference in change from baseline hemoglobin versus placebo: ≥ 0.5 g/dL
[3]; all dose cohorts
  time of maximum reticulocyte counts postdose: approximately 7 days
[3]; human, in vivo
  changes in other pharmacodynamic parameters (red cell count, hematocrit, ferritin, reticulocyte hemoglobin content, soluble transferrin receptor, EPO): consistent with stimulation of erythropoiesis
[3]; over 28 days post-dose
  hemoglobin response and change from baseline (mean and maximum): dose-dependent increases
[3]; single IV 0.025, 0.05, 0.1 mg/kg
  Reticulocyte count (absolute number and percent): dose-dependent increase
[3]; single IV dose, NHV
  pharmacologically active dose (PAD): 0.1 mg/kg
[3]; with increasing dose
  Serum EPO levels: transiently decreased
[4]; rats and monkeys
  rise in reticulocytes and RBCs as measured by hemoglobin levels: dose proportional
[4]; single or repeat dose, mice, rats (normocythemic and nephrectomized), dogs, rabbits, monkeys
  stimulation of erythropoiesis: dose-dependent activity
[5]; 60 patients
  patients reporting adverse events: 18%
[5]; SC
  injection site reaction: no injection site reaction was reported
[5]; dosed monthly
  hemoglobin (Hgb) increase: sustained increase in hemoglobin (Hgb) up to week 22
[5]; human, in vivo
  number of adverse events: 36
  relation of adverse events to study drug: not related to study drug
[5]; human, in vivo, sc
  tolerability of multiple monthly subcutaneous injections: well-tolerated
[5]; monthly dosing
  correction of anaemia: correction of anaemia in patients by week eight
[6]
  AUC(0-infinity) relationship with dose: evidence of non-linearity at the highest dose of 0.1 mg/kg; also recorded: nonlinear at the 0.1 mg/kg dose
